Four sequences from the supplement of paper PMC5998384 can be followed below.

Series [1] has as its system HeLa Kyoto. As to the kind of experiment: thermal stability score vs G1/S (z-score of summed log2 fold changes over temperatures); higher = more thermally stable than in G1/S.
The test system of series [2] is HeLa Kyoto. As to the kind of experiment: solubility change mitosis vs G1/S (difference of NP-40 vs SDS log2 ratios) (log2 ratio difference); higher = more soluble in mitosis.
The subject of series [3] is HeLa Kyoto. As to the kind of experiment: melting temperature (median over replicates), in situ; higher = more thermally stable.
Series [4] has as its system HeLa Kyoto. Description: solubility in G1/S (NP-40 vs SDS abundance) (log2 ratio); higher = more soluble. Particulars: cell cycle stage: G1/S.
[5] abbreviates: cell cycle stage: early G1 (4.5 h after nocodazole release).
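Wherever melting temperature (median over replicates), in situ is given: HeLa Kyoto cells synchronized by double thymidine or nocodazole block, proteins quantified by TMT10plex mass spectrometry, three independent biological replicates.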
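Wherever solubility change mitosis vs G1/S (difference of NP-40 vs SDS log2 ratios) is given: synchronized HeLa Kyoto cells (double thymidine block for G1/S, nocodazole release for mitosis), protein amounts in NP-40 versus SDS lysates quantified by mass spectrometry, three biological replicates.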
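Wherever solubility in G1/S (NP-40 vs SDS abundance) is given: HeLa Kyoto cells arrested at G1/S by double thymidine block, proteins quantified by TMT10plex mass spectrometry in mild NP-40 versus SDS extracts, three biological replicates.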
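Wherever thermal stability score vs G1/S (z-score of summed log2 fold changes over temperatures) is given: synchronized HeLa Kyoto cells, proteins quantified by TMT10plex mass spectrometry, three biological replicates, mitosis taken 0.5 h after nocodazole release, G1/S directly after double thymidine block.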

Consider “MASGEHSPGSGAARRPLHSAQAVDVASASNFRAFELLHLHLDLRAEFGPPGPGAGSRGLSGTAVLDLRCLEPEGAAELRLDSHPCLEVTAAALRRERPGSEEPPAEPVSFYTQPFSHYGQALCVSFPQPCRAAERLQVLLTYRVGEGPGVCWLAPEQTAGKKKPFVYTQGQAVLNRAFFPCFDTPAVKYKYSALIEVPDGFTAVMSASTWEKRGPNKFFFQMCQPIPSYLIALAIGDLVSAEVGPRSRVWAEPCLIDAAKEEYNGVIEEFLATGEKLFGPYVWGRYDLLFMPPSFPFGGMENPCLTFVTPCLLAGDRSLADVIIHEISHSWFGNLVTNANWGEFWLNEGFTMYAQRRISTILFGAAYTCLEAATGRALLRQHMDITGEENPLNKLRVKIEPGVDPDDTYNETPYEKGFCFVSYLAHLVGDQDQFDSFLKAYVHEFKFRSILADDFLDFYLEYFPELKKKRVDIIPGFEFDRWLNTPGWPPYLPDLSPGDSLMKPAEELAQLWAAEELDMKAIEAVAISPWKTYQLVYFLDKILQKSPLPPGNVKKLGDTYPSISNARNAELRLRWGQIVLKNDHQEDFWKVKEFLHNQGKQKYTLPLYHAMMGGSEVAQTLAKETFASTASQLHSNVVNYVQQIVAPKGS [RNPEP]”, for which the thermal stability score in the series with HeLa Kyoto [1] (setting [5]) amounted to 1.06; with HeLa Kyoto [1] (cell cycle stage: mitosis), 1.25. Moreover, the “solubility change mitosis (log2)” value in the series on HeLa Kyoto [2] was -0.179. Also, the figures for the melting temperature with HeLa Kyoto [3] (cell cycle stage: G1/S) and in the series on HeLa Kyoto [3] (cell cycle stage: mitosis) were 50.1 °C and 50.3 °C, respectively. The “solubility in G1/S (log2)” value in the series with HeLa Kyoto [4] worked out at 0.182.

As for “MASGVTVNDEVIKVFNDMKVRKSSTQEEIKKRKKAVLFCLSDDKRQIIVEEAKQILVGDIGDTVEDPYTSFVKLLPLNDCRYALYDATYETKESKKEDLVFIFWAPESAPLKSKMIYASSKDAIKKKFTGIKHEWQVNGLDDIKDRSTLGEKLGGNVVVSLEGKPL [CFL2]”, the results for the thermal stability score in the series on HeLa Kyoto [1] (setting [5]) and in the series with HeLa Kyoto [1] (cell cycle stage: mitosis) were -0.937 and -3.81, respectively. Moreover, in the series with HeLa Kyoto [2], the “solubility change mitosis (log2)” value was -0.058. Moreover, the melting temperature in the series on HeLa Kyoto [3] (cell cycle stage: G1/S) came out at 55.1 °C; in the series with HeLa Kyoto [3] (cell cycle stage: mitosis), 54.2 °C. Moreover, the “solubility in G1/S (log2)” value with HeLa Kyoto [4] was 0.129.

With “MASILDEYENSLSRSAVLQPGCPSVGIPHSGYVNAQLEKEVPIFTKQRIDFTPSERITSLVVSSNQLCMSLGKDTLLRIDLGKANEPNHVELGRKDDAKVHKMFLDHTGSHLLIALSSTEVLYVNRNGQKVRPLARWKGQLVESVGWNKALGTESSTGPILVGTAQGHIFEAELSASEGGLFGPAPDLYFRPLYVLNEEGGPAPVCSLEAERGPDGRSFVIATTRQRLFQFIGRAAEGAEAQGFSGLFAAYTDHPPPFREFPSNLGYSELAFYTPKLRSAPRAFAWMMGDGVLYGALDCGRPDSLLSEERVWEYPEGVGPGASPPLAIVLTQFHFLLLLADRVEAVCTLTGQVVLRDHFLEKFGPLKHMVKDSSTGQLWAYTERAVFRYHVQREARDVWRTYLDMNRFDLAKEYCRERPDCLDTVLAREADFCFRQRRYLESARCYALTQSYFEEIALKFLEARQEEALAEFLQRKLASLKPAERTQATLLTTWLTELYLSRLGALQGDPEALTLYRETKECFRTFLSSPRHKEWLFASRASIHELLASHGDTEHMVYFAVIMQDYERVVAYHCQHEAYEEALAVLARHRDPQLFYKFSPILIRHIPRQLVDAWIEMGSRLDARQLIPALVNYSQGGEVQQVSQAIRYMEFCVNVLGETEQAIHNYLLSLYARGRPDSLLAYLEQAGASPHRVHYDLKYALRLCAEHGHHRACVHVYKVLELYEEAVDLALQVDVDLAKQCADLPEEDEELRKKLWLKIARHVVQEEEDVQTAMACLASCPLLKIEDVLPFFPDFVTIDHFKEAICSSLKAYNHHIQELQREMEEATASAQRIRRDLQELRGRYGTVEPQDKCATCDFPLLNRPFYLFLCGHMFHADCLLQAVRPGLPAYKQARLEELQRKLGAAPPPAKGSARAKEAEGGAATAGPSREQLKADLDELVAAECVYCGELMIRSIDRPFIDPQRYEEEQLSWL [VPS18]”, the results for the thermal stability score with HeLa Kyoto [1] (setting [5]) and with HeLa Kyoto [1] (cell cycle stage: mitosis) were 0.54 and 1.02, respectively. The “solubility change mitosis (log2)” value in the series on HeLa Kyoto [2] is -0.0584. Besides, the results for the melting temperature with HeLa Kyoto [3] (cell cycle stage: G1/S) and with HeLa Kyoto [3] (cell cycle stage: mitosis) were 50.1 °C and 49.5 °C, respectively. Moreover, the “solubility in G1/S (log2)” value in the series on HeLa Kyoto [4] is -0.115.

On to “MASILLRSCRGRAPARLPPPPRYTVPRGSPGDPAHLSCASTLGLRNCLNVPFGCCTPIHPVYTSSRGDHLGCWALRPECLRIVSRAPWTSTSVGFVAVGPQCLPVRGWHSSRPVRDDSVVEKSLKSLKDKNKKLEEGGPVYSPPAEVVVKKSLGQRVLDELKHYYHGFRLLWIDTKIAARMLWRILNGHSLTRRERRQFLRICADLFRLVPFLVFVVVPFMEFLLPVAVKLFPNMLPSTFETQSLKEERLKKELRVKLELAKFLQDTIEEMALKNKAAKGSATKDFSVFFQKIRETGERPSNEEIMRFSKLFEDELTLDNLTRPQLVALCKLLELQSIGTNNFLRFQLTMRLRSIKADDKLIAEEGVDSLNVKELQAACRARGMRALGVTEDRLRGQLKQWLDLHLHQEIPTSLLILSRAMYLPDTLSPADQLKSTLQTLPEIVAKEAQVKVAEVEGEQVDNKAKLEATLQEEAAIQQEHREKELQKRSEVAKDFEPERVVAAPQRPGTEPQPEMPDTVLQSETLKDTAPVLEGLKEEEITKEEIDILSDACSKLQEQKKSLTKEKEELELLKEDVQDYSEDLQEIKKELSKTGEEKYVEESKASKRLTKRVQQMIGQIDGLISQLEMDQQAGKLAPANGMPTGENVISVAELINAMKQVKHIPESKLTSLAAALDENKDGKVNIDDLVKVIELVDKEDVHISTSQVAEIVATLEKEEKVEEKEKAKEKAEKEVAEVKS [LETM1]”, for which the thermal stability score was -0.277 in the series on HeLa Kyoto [1] (setting [5]) and -1.56 in the series with HeLa Kyoto [1] (cell cycle stage: mitosis). The “solubility change mitosis (log2)” value with HeLa Kyoto [2] was -0.0749. In addition, the results for the melting temperature in the series on HeLa Kyoto [3] (cell cycle stage: G1/S) and with HeLa Kyoto [3] (cell cycle stage: mitosis) were 52.9 °C and 52.3 °C, respectively. Also, the “solubility in G1/S (log2)” value in the series with HeLa Kyoto [4] amounted to 0.088.
